Source: patent US20050186659A1 (published 2005)

Biological target: the molecule itself
Test: analytical ultracentrifugation (sedimentation velocity) in buffer with 0.4-0.6 M GuHCl; self-association of the enzyme
Protocol: Analytical ultracentrifugation. Velocity sedimentation experiments were performed using an XL-A analytical ultracentrifuge (Beckman Instruments, Palo Alto, Calif.) with an An60-Ti rotor. 11β-HSD1 in 50 mM Tris-HCl, pH 8.0: 1 mM TCEP and increasing concentrations of GuHCl (0-2.0 M) was centrifuged at 40,000 rpm. Solutions containing the same components except the protein were used as references. Scans were collected every 5 min at 280 nm absorption wavelength and the radial distance of the sedimenting boundary r was determined. The sedimentation coefficient was calculated by the gradient of the plot of ln(r) vs ω²t, where ω was the angular velocity and t was the time.
The association state of 11β-HSD1 was investigated by analytical ultracentrifugation. […] When incubated in buffer containing 0.4 M GuHCl, the guinea pig enzyme appeared to be constituted by two major populations (FIG. 5B). This behavior was even more pronounced at 0.6 M GuHCl (FIG. 5C). A molecular weight of approximately 60 kDa can be derived from the sedimentation coefficient of the larger peak, corresponding to a dimeric 11β-HSD1 population, while the second peak may originate from a smaller portion of tetrameric enzyme.

B1: recombinant guinea pig 11β-hydroxysteroid dehydrogenase type 1 (11β-HSD1), catalytic domain with His6 tag (enzyme)
chain: MGSSHHHHHHSSGLVPRGSHMNEKFRPEMLQGKKVIVTGASKGIGREIAYHLAKMGAHVVVTARSKEALQKVVARCLELGAASAHYIAGSMEDMTFAEEFVAEAGNLMGGLDMLILNHVLYNRLTFFHGEIDNVRKSMEVNFHSFVVLSVAAMPMLMQSQGSIAVVSSVAGKITYPLIAPYSASKFALDGFFSTLRSEFLVNKVNVSITLCILGLIDTETAIKATSGIYLGPASPKEECALEIIKGTALRQDEMYYVGSRWVPYLLGNPGRKIMEFLSAAEYNWDNVLSNEKLYGRWA
notes: also called guinea pig 11β-HSD1; guinea pig enzyme
Question: Does B1 bind?
Answer: binds
